Residue numbers refer to the chain shown, from its start.
What was measured:
Conditions in all cases: nanopore translocation; background mutations not given
[1] = target: T1, Dda 1993 K177F K177F (Enterobacteria phage T4) (UniProt P32270)
T1 sequence: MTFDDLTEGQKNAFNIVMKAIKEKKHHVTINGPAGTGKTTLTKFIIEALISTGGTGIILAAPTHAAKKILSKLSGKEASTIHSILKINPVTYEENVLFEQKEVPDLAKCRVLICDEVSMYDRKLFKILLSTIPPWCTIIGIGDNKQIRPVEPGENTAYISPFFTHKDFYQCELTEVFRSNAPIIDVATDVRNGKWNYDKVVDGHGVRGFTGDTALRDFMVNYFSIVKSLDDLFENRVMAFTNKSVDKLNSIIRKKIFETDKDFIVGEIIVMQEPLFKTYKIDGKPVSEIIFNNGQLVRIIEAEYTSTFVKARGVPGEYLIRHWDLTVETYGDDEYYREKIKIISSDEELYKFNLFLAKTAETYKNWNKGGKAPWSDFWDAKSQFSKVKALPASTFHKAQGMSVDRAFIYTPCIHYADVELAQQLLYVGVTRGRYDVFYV

[2] = target: T2, Dda 1993 K177G K177G (Enterobacteria phage T4) (UniProt P32270)
T2 sequence: T1 sequence with F177G

[3] = target: T3, Dda 1993 K177R K177R (Enterobacteria phage T4) (UniProt P32270)
T3 sequence: T1 sequence with F177R

[4] = target: T4, Dda 1993 K177T K177T (Enterobacteria phage T4) (UniProt P32270)
T4 sequence: T1 sequence with F177T

[5] = target: T5, Dda 1993 K177V K177V (Enterobacteria phage T4) (UniProt P32270)
T5 sequence: T1 sequence with F177V

[6] = target: T6, Dda 1993 K177Y K177Y (Enterobacteria phage T4) (UniProt P32270)
T6 sequence: T1 sequence with F177Y

barcoded 3.6 kb DNA analyte ligated to sequencing Y adaptor
activity (bps speed delta vs control) [1]: -33.4
activity (bps speed delta vs control) [2]: -27.6
activity (bps speed delta vs control) [3]: 21.7
activity (bps speed delta vs control) [4]: 22.6
activity (bps speed delta vs control) [5]: -16
activity (bps speed delta vs control) [6]: -43.9

— US20250382602
